Positions count from the first letter of the chain named.
B1: TR01H067-E22Hh/none-Hi-Kn010G3/L0203-k0 (antibody, V domains shown)
VH: QVQLVESGGGLVQPGRSLRLSCAASGFTFSNAWMHWVRQAPGKGLEWVAQIKDKSQNYATYYAESVKGRFTISRDDSKNSLYLQMNSLKTEDTAVYYCRYVHYAASYGVDAWGQGTTVTVSS
VL: DIVMTQSPLSLPVTPGEPASISCRSSQSPVHSNRNTYIHWYQQKPGQAPRLLIYKVSNRFSGVPDRFSGSGSGTDFTLKISRVEAEDVGVYYCGQGTQVPYTFGQGTKLEIKR
notes: one-arm
B2: TR01H067-E22Hh/none-Hi-Kn010G3/L0212-k0 (antibody, V domains shown)
VH: B1 VH
VL: B1 VL with S25P, I38L, G94Y
notes: one-arm
B3: TR01H067-E22Hh/none-Hi-Kn010G3/L0222-k0 (antibody, V domains shown)
VH: B1 VH
VL: B1 VL with H39Q, G94Y
notes: one-arm
B4: TR01H068-E22Hh/none-Hi-Kn010G3/L0000-k0 (antibody, V domains shown)
VH: B1 VH with L11V, R16G
VL: B1 VL with P29L, I38L
notes: one-arm
B5: TR01H069-E22Hh/none-Hi-Kn010G3/L0000-k0 (antibody, V domains shown)
VH: B1 VH with L11V, R16G, A111I
VL: B1 VL with P29L, I38L
notes: one-arm
B6: TR01H070-E22Hh/none-Hi-Kn010G3/L0000-k0 (antibody, V domains shown)
VH: B1 VH with L11V, R16G, A111Y
VL: B1 VL with P29L, I38L
notes: one-arm
B7: TR01H071-E22Hh/none-Hi-Kn010G3/L0000-k0 (antibody, V domains shown)
VH: B1 VH with Q56N, D75A, L81I, A111I
VL: B1 VL with P29L, I38L
notes: one-arm
B8: TR01H071-E22Hh/none-Hi-Kn010G3/L0222-k0 (antibody, V domains shown)
VH: B1 VH with Q56N, D75A, L81I, A111I
VL: B1 VL with H39Q, G94Y
notes: one-arm
B9: TR01H072-E22Hh/none-Hi-Kn010G3/L0000-k0 (antibody, V domains shown)
VH: B1 VH with D75A, L81I, A111I
VL: B1 VL with P29L, I38L
notes: one-arm
B10: TR01H073-E22Hh/none-Hi-Kn010G3/L0000-k0 (antibody, V domains shown)
VH: B1 VH with A111I
VL: B1 VL with P29L, I38L
notes: one-arm
B11: TR01H074-E22Hh/none-Hi-Kn010G3/L0000-k0 (antibody, V domains shown)
VH: B1 VH with L11V, R16G, D75A, L81I, A111I
VL: B1 VL with P29L, I38L
notes: one-arm
B12: TR01H075-E22Hh/none-Hi-Kn010G3/L0000-k0 (antibody, V domains shown)
VH: B1 VH with A111Y
VL: B1 VL with P29L, I38L
notes: one-arm
B13: TR01H076-E22Hh/none-Hi-Kn010G3/L0000-k0 (antibody, V domains shown)
VH: B1 VH with L11V, R16G, D75A, L81I, A111Y
VL: B1 VL with P29L, I38L
notes: one-arm
B14: TR01H081-E22Hh/none-Hi-Kn010G3/L0000-k0 (antibody, V domains shown)
VH: B1 VH with D75A, L81I, S106G, A111I
VL: B1 VL with P29L, I38L
notes: one-arm
B15: TR01H081-E22Hh/none-Hi-Kn010G3/L0011-k0 (antibody, V domains shown)
VH: B1 VH with D75A, L81I, S106G, A111I
VL: B1 VL with S28P, P29L, I38L
notes: one-arm
B16: TR01H081-E22Hh/none-Hi-Kn010G3/L0201-k0 (antibody, V domains shown)
VH: B1 VH with D75A, L81I, S106G, A111I
VL: B1 VL with S28P, I38L
notes: one-arm
B17: TR01H082-E22Hh/none-Hi-Kn010G3/L0000-k0 (antibody, V domains shown)
VH: B1 VH with S106G
VL: B1 VL with P29L, I38L
notes: one-arm
B18: TR01H082-E22Hh/none-Hi-Kn010G3/L0011-k0 (antibody, V domains shown)
VH: B1 VH with S106G
VL: B1 VL with S28P, P29L, I38L
notes: one-arm
B19: TR01H082-E22Hh/none-Hi-Kn010G3/L0201-k0 (antibody, V domains shown)
VH: B1 VH with S106G
VL: B1 VL with S28P, I38L
notes: one-arm
B20: TR01H082-E22Hh/none-Hi-Kn010G3/L0203-k0 (antibody, V domains shown)
VH: B1 VH with S106G
VL: B1 VL
notes: one-arm
B21: TR01H082-E22Hh/none-Hi-Kn010G3/L0212-k0 (antibody, V domains shown)
VH: B1 VH with S106G
VL: B1 VL with S25P, I38L, G94Y
notes: one-arm
B22: TR01H082-E22Hh/none-Hi-Kn010G3/L0222-k0 (antibody, V domains shown)
VH: B1 VH with S106G
VL: B1 VL with H39Q, G94Y
notes: one-arm
B23: TR01H083-E22Hh/none-Hi-Kn010G3/L0000-k0 (antibody, V domains shown)
VH: B1 VH with Q56N, D75A, L81I, S106G, A111I
VL: B1 VL with P29L, I38L
notes: one-arm
B24: TR01H083-E22Hh/none-Hi-Kn010G3/L0011-k0 (antibody, V domains shown)
VH: B1 VH with Q56N, D75A, L81I, S106G, A111I
VL: B1 VL with S28P, P29L, I38L
notes: one-arm
B25: TR01H083-E22Hh/none-Hi-Kn010G3/L0201-k0 (antibody, V domains shown)
VH: B1 VH with Q56N, D75A, L81I, S106G, A111I
VL: B1 VL with S28P, I38L
notes: one-arm
B26: TR01H083-E22Hh/none-Hi-Kn010G3/L0212-k0 (antibody, V domains shown)
VH: B1 VH with Q56N, D75A, L81I, S106G, A111I
VL: B1 VL with S25P, I38L, G94Y
notes: one-arm
B27: TR01H083-E22Hh/none-Hi-Kn010G3/L0222-k0 (antibody, V domains shown)
VH: B1 VH with Q56N, D75A, L81I, S106G, A111I
VL: B1 VL with H39Q, G94Y
notes: one-arm
B28: TR01H084-E22Hh/none-Hi-Kn010G3/L0000-k0 (antibody, V domains shown)
VH: B1 VH with L11V, R16G, D75A, L81I, S106G, A111I
VL: B1 VL with P29L, I38L
notes: one-arm
B29: TR01H084-E22Hh/none-Hi-Kn010G3/L0011-k0 (antibody, V domains shown)
VH: B1 VH with L11V, R16G, D75A, L81I, S106G, A111I
VL: B1 VL with S28P, P29L, I38L
notes: one-arm
B30: TR01H084-E22Hh/none-Hi-Kn010G3/L0201-k0 (antibody, V domains shown)
VH: B1 VH with L11V, R16G, D75A, L81I, S106G, A111I
VL: B1 VL with S28P, I38L
notes: one-arm
B31: TR01H090-E22Hh/none-Hi-Kn010G3/L0011-k0 (antibody, V domains shown)
VH: B1 VH with R16G, S106G
VL: B1 VL with S28P, P29L, I38L
notes: one-arm
B32: TR01H091-E22Hh/none-Hi-Kn010G3/L0011-k0 (antibody, V domains shown)
VH: B1 VH with R19K, S106G
VL: B1 VL with S28P, P29L, I38L
notes: one-arm
B33: TR01H091-E2702GsKsc/none-Hi-E2704sE/L0011-k0 (antibody, V domains shown)
VH: B1 VH with R19K, S106G
VL: B1 VL with S28P, P29L, I38L
notes: one-arm
B34: TR01H092-E22Hh/none-Hi-Kn010G3/L0011-k0 (antibody, V domains shown)
VH: B1 VH with K67A, S106G
VL: B1 VL with S28P, P29L, I38L
notes: one-arm
B35: TR01H093-E22Hh/none-Hi-Kn010G3/L0011-k0 (antibody, V domains shown)
VH: B1 VH with K67Q, S106G
VL: B1 VL with S28P, P29L, I38L
notes: one-arm
B36: TR01H094-E22Hh/none-Hi-Kn010G3/L0011-k0 (antibody, V domains shown)
VH: B1 VH with K67S, S106G
VL: B1 VL with S28P, P29L, I38L
notes: one-arm
B37: TR01H095-E22Hh/none-Hi-Kn010G3/L0011-k0 (antibody, V domains shown)
VH: B1 VH with T60F, S106G
VL: B1 VL with S28P, P29L, I38L
notes: one-arm
B38: TR01H096-E22Hh/none-Hi-Kn010G3/L0011-k0 (antibody, V domains shown)
VH: B1 VH with T60G, S106G
VL: B1 VL with S28P, P29L, I38L
notes: one-arm
B39: TR01H097-E22Hh/none-Hi-Kn010G3/L0011-k0 (antibody, V domains shown)
VH: B1 VH with T60L, S106G
VL: B1 VL with S28P, P29L, I38L
notes: one-arm
B40: TR01H098-E22Hh/none-Hi-Kn010G3/L0011-k0 (antibody, V domains shown)
VH: B1 VH with T60P, S106G
VL: B1 VL with S28P, P29L, I38L
notes: one-arm
B41: TR01H099-E22Hh/none-Hi-Kn010G3/L0011-k0 (antibody, V domains shown)
VH: B1 VH with T60Q, S106G
VL: B1 VL with S28P, P29L, I38L
notes: one-arm
B42: TR01H099-E2702GsKsc/none-Hi-E2704sE/L0011-k0 (antibody, V domains shown)
VH: B1 VH with T60Q, S106G
VL: B1 VL with S28P, P29L, I38L
notes: one-arm
B43: TR01H100-E22Hh/none-Hi-Kn010G3/L0011-k0 (antibody, V domains shown)
VH: B1 VH with T60S, S106G
VL: B1 VL with S28P, P29L, I38L
notes: one-arm
B44: TR01H100-E2702GsKsc/none-Hi-E2704sE/L0011-k0 (antibody, V domains shown)
VH: B1 VH with T60S, S106G
VL: B1 VL with S28P, P29L, I38L
notes: one-arm
B45: TR01H101-E22Hh/none-Hi-Kn010G3/L0011-k0 (antibody, V domains shown)
VH: B1 VH with T60V, S106G
VL: B1 VL with S28P, P29L, I38L
notes: one-arm
B46: TR01H102-E22Hh/none-Hi-Kn010G3/L0011-k0 (antibody, V domains shown)
VH: B1 VH with Y62F, S106G
VL: B1 VL with S28P, P29L, I38L
notes: one-arm
B47: TR01H103-E22Hh/none-Hi-Kn010G3/L0011-k0 (antibody, V domains shown)
VH: B1 VH with Y62G, S106G
VL: B1 VL with S28P, P29L, I38L
notes: one-arm
B48: TR01H104-E22Hh/none-Hi-Kn010G3/L0011-k0 (antibody, V domains shown)
VH: B1 VH with Y62I, S106G
VL: B1 VL with S28P, P29L, I38L
notes: one-arm
B49: TR01H105-E22Hh/none-Hi-Kn010G3/L0011-k0 (antibody, V domains shown)
VH: B1 VH with Y62L, S106G
VL: B1 VL with S28P, P29L, I38L
notes: one-arm

Molecular target: T1, soluble human CD3 epsilon chain (human, UniProt P07766 23-126)
T1 construct: also called CD3ε
Assay: SPR

T1 sequence (P07766 23-126 limits assumed): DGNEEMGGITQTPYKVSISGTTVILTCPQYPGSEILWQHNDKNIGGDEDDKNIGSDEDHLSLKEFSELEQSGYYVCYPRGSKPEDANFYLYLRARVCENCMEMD

| Binder | Kd |
| --- | --- |
| B1 | 47.9 nM |
| B2 | 5.88 nM |
| B3 | 76.3 nM |
| B4 | 101 nM |
| B5 | 71.1 nM |
| B6 | 120 nM |
| B7 | 8.85 nM |
| B8 | 10.4 nM |
| B9 | 20.3 nM |
| B10 | 59.7 nM |
| B11 | 29.1 nM |
| B12 | 98.8 nM |
| B13 | 47.8 nM |
| B14 | 15.6 nM |
| B15 | 13.5 nM |
| B16 | 9.46 nM |
| B17 | 73.7 nM |
| B18 | 59.5 nM |
| B19 | 44.9 nM |
| B20 | 40.7 nM |
| B21 | 4.75 nM |
| B22 | 101 nM |
| B23 | 6.83 nM |
| B24 | 6.7 nM |
| B25 | 4.42 nM |

| Binder | Kd |
| --- | --- |
| B26 | 0.0586 nM |
| B27 | 9.42 nM |
| B28 | 21.3 nM |
| B29 | 19.8 nM |
| B30 | 16.5 nM |
| B31 | 69.5 nM |
| B32 | 66.7 nM |
| B33 | 13.9 nM |
| B34 | 72.1 nM |
| B35 | 68 nM |
| B36 | 70 nM |
| B37 | 90.9 nM |
| B38 | 74.7 nM |
| B39 | 87.6 nM |
| B40 | 91.4 nM |
| B41 | 77.4 nM |
| B42 | 14.6 nM |
| B43 | 62.5 nM |
| B44 | 11.1 nM |
| B45 | 78.7 nM |
| B46 | 85.4 nM |
| B47 | 77.2 nM |
| B48 | 82.6 nM |
| B49 | 69.5 nM |

Source: patent publication US20250066503A1, “CELL INJURY INDUCING THERAPEUTIC DRUG FOR USE IN CANCER THERAPY” (CHUGAI SEIYAKU KABUSHIKI KAISHA, priority 2016, published 2025)
